Results published in US20200347139A1 (INHIBRX BIOSCIENCES, published 2020).

Experiments:
mFc-CLEC12a-ECD = biological target: T1, mFc-CLEC12a-ECD (human); assay: BLI, mFc-CLEC12a-ECD captured on anti-mFc sensors, 100 nM sdAb as first sdAb
T1 construct: It was immobilized on anti-mFc capture sensors for BLI; also called CLEC12a antigen
T1 chain: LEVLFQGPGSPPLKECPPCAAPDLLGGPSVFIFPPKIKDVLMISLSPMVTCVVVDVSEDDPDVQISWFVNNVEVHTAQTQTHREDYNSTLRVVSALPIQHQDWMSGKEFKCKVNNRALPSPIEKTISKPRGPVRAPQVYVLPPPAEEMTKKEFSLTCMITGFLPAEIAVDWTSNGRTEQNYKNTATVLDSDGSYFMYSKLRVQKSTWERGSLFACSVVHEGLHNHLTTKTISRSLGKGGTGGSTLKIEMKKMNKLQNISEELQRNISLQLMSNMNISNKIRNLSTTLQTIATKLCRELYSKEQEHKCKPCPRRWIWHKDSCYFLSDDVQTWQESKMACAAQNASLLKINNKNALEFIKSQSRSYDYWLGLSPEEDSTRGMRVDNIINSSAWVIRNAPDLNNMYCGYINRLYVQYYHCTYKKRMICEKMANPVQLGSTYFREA
Method: The epitopes of single domain antibodies (sdAbs) that comprise VHH domains that bind CLEC12a were compared using Bio-Layer Interferometry. 7 μg/mL of mFc-CLEC12a-ECD (SEQ ID NO: 87) was immobilized on anti-mFc coated capture sensors. 100 nM of one sdAb was then loaded onto the CLEC12a antigen and allowed to come to equilibrium. The sensors were then transferred into 100 nM of a second sdAb.

[1] = biological target: T2, human CLEC12a expressed on transiently transfected HEK 293 cells (human, UniProt Q5QGZ9 1-265); assay: flow cytometry on HEK 293 cells transfected with human CLEC12a; apparent Kd, one-site fit
T2 construct: also called CLL-1; CLL1
T2 sequence: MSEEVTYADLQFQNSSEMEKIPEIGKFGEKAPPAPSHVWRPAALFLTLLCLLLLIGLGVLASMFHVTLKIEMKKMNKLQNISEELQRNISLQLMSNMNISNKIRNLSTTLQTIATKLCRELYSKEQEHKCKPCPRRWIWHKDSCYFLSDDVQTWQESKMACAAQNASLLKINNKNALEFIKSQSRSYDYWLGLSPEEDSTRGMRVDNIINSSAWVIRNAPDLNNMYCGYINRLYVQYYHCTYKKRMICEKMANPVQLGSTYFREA
Method: Binding of sdAbs to human CLEC12a was assessed by flow cytometry. […] HEK 293 cells were transiently transfected with a plasmid encoding CLEC12a (UniProt Accession No. Q5QGZ9.3; SEQ ID NO: 1) and used as the positive cell line, and untransfected HEK 293 cells were used as CLEC12a-negative cells. Each cell type was plated at 30,000 cells/well in FACS buffer (PBS 1% BSA, 0.1% NaN₃ pH 7.4) on a 96-well round-bottom plate. The sdAbs were diluted in FACS buffer in a 3-fold, 11 point serial dilution. The sdAb dilutions were added to the plated cells, and assay plates were incubated for 30 minutes at 4° C. After washing twice in 150 μL of FACS buffer, cells in each well were resuspended in 100 μL of 1:2000 Alexa Fluor 647-conjugated Anti-Human IgG secondary diluted in FACS buffer and incubated at 4° C. for 30 minutes. The cells were washed twice more, then bound antibody was detected by flow cytometry.
Flow cytometric analysis was performed on an Intellicyte iQue Plus and fluorescence was plotted as median fluorescence intensity. The apparent affinity (Kd, nM) was determined using one site binding non-linear regression in PRISM graph software.

B1: hzMB11v13 sdAb (VHH hzMB11v13 fused to human IgG1 xELL Fc) (Fc fusion)
chain: EVQLVESGGGEVQPGGSLRLSCAASGFLFSIYDMNWYRQAPGKEREWVAGITNNGYSTAYAESVKGRFTISRDNAKNTIYLQMSSLRAEDTAVYYCHADLTKAYDVEYAWGQGTLVTVDKTHTCPPCPAPGGPSVFLFPPKPKDTLMISRTPEVTCVVVDVSHEDPEVKFNWYVDGVEVHNAKTKPREEQYNSTYRVVSVLTVLHQDWLNGKEYKCKVSNKALPAPIEKTISKAKGQPREPQVYTLPPSRDELTKNQVSLTCLVKGFYPSDIAVEWESNGQPENNYKTTPPVLDSDGSFFLYSKLTVDKSRWQQGNVFSCSVMHEALHNHYTQKSLSLSPGK
notes: Humanized version of MB11; No linker is stated; also called hzMB11v13-IgG1
binding result (mFc-CLEC12a-ECD): binds | Kd [1]: 0.3 nM
